# From the nanobody polyreactivity screen of Harvey et al. (2022)
# Test: yeast display, Sf9 membrane polyspecificity reagent, FACS + sequencing; frameworks hold sequencing errors
# In short: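 Using colony PCR, genes from sorted yeast display clones were amplified, then sequenced on MiSeq at 2 × 250 and filtered by CDR length. The clones had been stained with 10% biotinylated, detergent-solubilized Sf9 membrane reagent for 1 hour at 4 °C and sorted by FACS into low and high (top ~1%) gates on anti-HA and streptavidin fluorescence. Polyreactivity labels come from the gate of origin.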
row,Sequence,polyreactivity (PSR sort gate)
1,QVQLVESGGGLVQAGGSLRLSCAASGSIFYTNAMGWYRQAPGKERELVAAIRWSGGRTYYADSVKGRFTISRDNAKNTVYLQMNSLKPEDTAVYYCNKVPRTPIPYKYGYWGQGTQVTVSS,high polyreactivity
2,QVQLVESGGGLVQAGGSLRLSCAASGSIFYTYAMGWYRQAPGKERELVAAISSGGSTNYADSVKGRFTISRDNPKNTVYLQMNSLKPEDTAVYYCAAEYTRSFYIYYRFGYWGQGTQVTVSS,high polyreactivity
3,QVQLVESGGGLVQAGGSLRLSCAASGSIFYTYAMGWYRQAPGKERELVAAISSGGSTTYADSVKGRFTISRDNAKNTVYLQMKSLKPEDTAVYYCNTSYRKKKRYYYWGQGTQVTVSS,high polyreactivity
4,QVQLVESGGGLVQAGGSLRLSCAASGSIFYVNAMGWYRQAPGKERELVAAINWSGGRTYYADSVKGRFTISRDTAKNTVYLQMNSLKPEDTAVYYCAATVRRRYERYNYWGQGTQVTVSS,high polyreactivity
5,QVQLVESGGGLVQAGGSLRLSCAASGSIFYVNAMGWYRQAPGKERELVAAISVRGGRTYYADSVKGRFTISRDNAKNTVYLQMNSLKPEDTAVYYCAAKSVYKFGDDYWGQGTQVTVSS,high polyreactivity
6,QVQLVESGGGLVQAGGSLRLSCAASGSIFYVNAMGWYRQAPGKERELVAVNADSVKGRFTISRDNAKNTVYLQMNSLKPEDTAVYYCAAGVNSTTRIYDYWGQGTQVTVSS,low polyreactivity
7,QVQLVESGGGLVQAGGSLRLSCAASGSIFYVNAMGWYRQEPGKERELVAAISYRGGSTYYADSVKGRFTISRDNAKNTVYLQMNSLKPEDTSVYYCAKRLYGSYHSDYWGQGTQVTVSS,high polyreactivity
8,QVQLVESGGGLVQAGGSLRLSCAASGSIFYVNTIGWYRQAPGKERELVAGITSRGGSTYYADSVKGRFTISRDNAKNTVYLQMNSLKPEDTAVYYCAKRAYGTALYRGYGYWGQGTQVTVSS,low polyreactivity
9,QVQLVESGGGLVQAGGSLRLSCAASGSIFYVNTMGWYRQAPGKERELVAVIDYGGDSTYYADSVKGRFTISRDNAKNTVYLQMNSLKPEDTAVYYCAADAWLLPYNYWGQGTQVTVSS,low polyreactivity
10,QVQLVESGGGLVQAGGSLRLSCAASGSIFYVYAMGWSRQAPGKERELVASITRRRTNYADSVKGRFTISRDTAKNTVYLQMNSLKPEDTAVYYCAATTYVRQYATYDYWGQGTQVTVSS,high polyreactivity
11,QVQLVESGGGLVQAGGSLRLSCAASGSIFYWNAMGWYRQAPGKERELVAAINYSGDSTYYADSVKGRFTISRDNAKNTVYLQMNSLKPEDTEVYYCNFDYWGQGTQVTVSS,low polyreactivity
12,QVQLVESGGGLVQAGGSLRLSCAASGSIFYWNAMGWYRQAPGKERELVAAISYNGGSTYYADSVKGRFTISRDNAKNTVYLQMNSLKPEDTAVYYCAADNYYYGYEYWGQGTQVTVSS,high polyreactivity
13,QVQLVESGGGLVQAGGSLRLSCAASGSIFYWYAMGWYRQAPGKERELVAAISSSNDSTDYADSVKGRFTISRDNAKNTVYLQMNSLKPEDTAVYYCAARYGTIQYDYWGQGTQVTVSS,low polyreactivity
14,QVQLVESGGGLVQAGGSLRLSCAASGSIFYWYAMGWYRQAPGKERELVAAITRAGSTNYADSVKGRFTISRDNAKNTVYLQMNSLKPEDTAVYYCAVAVTSYSSKKLYYWGQGTQVTVSS,low polyreactivity
15,QVQLVESGGGLVQAGGSLRLSCAASGSIFYYAMGWYRQAPGKERELVAAITTGDGTNYADSVKGRFTISRDNAKNTVYLQMNSLKPEDTAVYYCNSLPYQVWKRYSWGQGTQVTVSS,low polyreactivity
16,QVQLVESGGGLVQAGGSLRLSCAASGSIFYYAMGWYRQAPGKERELVATITRRGGRTHYADSVKGRFTLSRDNAKNTVYLQMNSLKPEDTAVYYCAADSYSYRYYYWGQGTQVTVSS,high polyreactivity
17,QVQLVESGGGLVQAGGSLRLSCAASGSIFYYNAMGWYRQAPGKERELVATIRTSGGSTYYADSVKGRFTISRDNAKNTVYLQMNSLKPEDTAVYYCAARDLRKLYSRYPYYYWGQGTQVTVSS,high polyreactivity
18,QVQLVESGGGLVQAGGSLRLSCAASGSIFYYNAMGWYRQAPGKERELVATITSAVSTNYADSVKWRFTISRDNAKNTVYLQMNSLKPEDTAVYYCAADVVYISGYDYWGQGTQVTVSS,low polyreactivity
19,QVQLVESGGGLVQAGGSLRLSCAASGSIFYYNPMGWYRQAPGKERELVATISGRGGSTYYADSVKGRFTISRDNAKNTVYLQMNILKPEDTAVYYCNTVPSHHRHTKYDYWGQGTQVTVSS,low polyreactivity
20,QVQLVESGGGLVQAGGSLRLSCAASGSIFYYNSMGWYRKAPGKEREFVAAISARGGSTYYADSVKGRFTISRDNAKNTVYLQLNSLKPEDSAVYYCAASWGMGTYSDSTFWGGYYYWGQGTQVTVSS,low polyreactivity
21,QVQLVESGGGLVQAGGSLRLSCAASGSIFYYYAMGWDRQAPGKERELVAGITGSGGRTYYADSVKGRFTISRDNAKNTVYLQMNSLKPEDTAVYYCAATRRDSTGSLYYYWGQGTQVTVSS,high polyreactivity
22,QVQLVESGGGLVQAGGSLRLSCAASGSIFYYYAMGWYRQAPGKERELVAAIDFGGGSTYYADSVKGRFTISRDNEKNTVYLQMNSLKPEDTAVYYCAARTFKDAGTAYGSWGQGTQETVSS,high polyreactivity

row,Sequence,polyreactivity (PSR sort gate)
1,QVQLVESGGGLVQAGGSLRLSCAASGSIFYYYAMGWYRQAPGKERELVAAISGTGGSTYYADSVKGRFSISRDNAKNTVYLQMNSLKPEDTAVYYCAASFYIERHRYNYWGQGTQVTVSS,high polyreactivity
2,QVQLVESGGGLVQAGGSLRLSCAASGSIFYYYAMGWYRQAPGKERELVAAISRSGGSTYYADSVKGRFTISRDNAKNTVYVQMNSLKRDDTAVYYCAAQSRYWTYDYWGQGTQVTVSS,high polyreactivity
3,QVQLVESGGGLVQAGGSLRLSCAASGSIFYYYAMGWYRQAPGKERELVAAITRSGNTYYADSVKGRFTISRDNAKNTVYLQMNSLKPEDTAVYYCAAEYGGGYGWGQGTQVTVSS,high polyreactivity
4,QVQLVESGGGLVQAGGSLRLSCAASGSIFYYYAMGWYRQAPGKERELVAAITRSVSRTYYADSVKGRFTISRDNAKNTVYLQMNYLKPEVTAVYYCNVVGSSETSTVYYCGQGTQVTVSS,high polyreactivity
5,QVQLVESGGGLVQAGGSLRLSCAASGSIFYYYAMGWYRQAPGKERELVARITFSGGDTYYADSVKGRFTISRDNAKNTVYLQMNSLKPEDSAVYYCAAYCSYFFAWLDSYRDDYDYWGQGTQVTVSS,low polyreactivity
6,QVQLVESGGGLVQAGGSLRLSCAASGSIFYYYAMGWYRQAPGKERELVASITRGGSTYYADSVKGRFTISRDNAKNTVYLQMNSLKPEDTAVYYCNADLGAYVPFDYWGQGTQVTVSS,high polyreactivity
7,QVQLVESGGGLVQAGGSLRLSCAASGSIFYYYAMGWYRQAPGKERELVATISSGGGSTYYADSVKGRFTISRDNAKNTVYLQMNSLKPEDTAVYYCAKRRWRSYYDSWGQGTQVTVSS,low polyreactivity
8,QVQLVESGGGLVQAGGSLRLSCAASGSIFYYYAMGWYRQAPGTERELVAAIYNGGSTYYADSVKGRFTISRDNAKNTVYLQMNSLKPEDTAVYYCNAGYSYWYRDLGYDSWGQGTQVTVSS,low polyreactivity
9,QVQLVESGGGLVQAGGSLRLSCAASGSIFYYYDMGWYRQAPGKERELVAAIRGSGGSTYYADSVKGRFTISRDNAKNTVYLQMNSLKPEDTAVYYCAAEFGDQRFYRQYVRRDHWGQGTQVTVSS,low polyreactivity
10,QVQLVESGGGLVQAGGSLRLSCAASGSIFYYYGMGWYRQAPGKESDLVARISKSVGRTYYADSVKGRFTISRDNAKNTVYLQMNSLKPEDTAVYYCAASRSFQGNRYDYWGQGTQVTVSS,high polyreactivity
11,QVQLVESGGGLVQAGGSLRLSCAASGSIFYYYSMGWYRQAPGKERELVARITSGGSTKYADSVKGRFTISRDNAKYTVYLQMNSLKPEDTAVYYCAARYQYNYWGTYGSWGQGTQVTVSS,high polyreactivity
12,QVQLVESGGGLVQAGGSLRLSCAASGSIFYYYTMGWYRQAHGKESEFVATMTYSGGSTYYADSVKGRFTISRDNAKNTVYLQMNSLKPEDTAVYYCNARPRYYDWVDYWGQGTQVTVSS,low polyreactivity
13,QVQLVESGGGLVQAGGSLRLSCAASGSIFYYYVMGWYIQAPGKERELVAAISSGGGTNYADSVKGRFTISRDNAKNSVYLQMNSLNPEDTAVYYGAKASAYGLANDYDYWGQGTQVTVSS,low polyreactivity
14,QVQLVESGGGLVQAGGSLRLSCAASGSIIAGYTMGWYRQAPGKERELVAGIRRGGSTNYADSVKGRFTISRDNAKNTVYLQMNSLKPEDTAVYYCNAQRTRSYVLRTFDYWGQGTQVTVSS,high polyreactivity
15,QVQLVESGGGLVQAGGSLRLSCAASGSIIATNAMGWYRQAPGKERELVAAISRSAGRTYYADSVKGRFTISRDNAKNTVYLQMNRLKPDDTAVYYCNAVFPGVTNQMDYWGQGTQVTVSS,high polyreactivity
16,QVQLVESGGGLVQAGGSLRLSCAASGSIIDANAMGWYRQAPGKERELVAAITSGDSTYYADSVKGRFTISRDNAKNTVYLQMNSLKPEDTAVYYCAADPVWHYYRMDYWGQGTQVTVSS,low polyreactivity
17,QVQLVESGGGLVQAGGSLRLSCAASGSIIDRNAMGWYRQAPGKERELVAAITSGGSTYYADSVKGRFTISRDNAKHTDYLKLNSLKPEDTAVYYCNADTDPPVPLYYWGQGSQVTVSS,low polyreactivity
18,QVQLVESGGGLVQAGGSLRLSCAASGSIIDYYAMGWYRPAPGKERELVAAISESSDSTYYADSVKGRFTISRDNAKNTVYLQMNSLTPEDTAVYYCAADSLTPKSASDYWGQGTQVTVSS,low polyreactivity
19,QVQLVESGGGLVQAGGSLRLSCAASGSIIDYYAMGWYRQAPGKERELVAAISSSVGITYYADSVKGRFTISRDNAKNTVYLQMNSLKPEDTAVYYCAADLYGWYFYNQEYDSWGQGTQVTVSS,low polyreactivity
20,QVQLVESGGGLVQAGGSLRLSCAASGSIIFSYAMGWYRQAPGKEREFVAAITGSGGSTYYADSVKGRFTISRDNAKNTVYLQMNSLKPEDTAVYYCARPQWRDWYGYWGQGTQVTVSS,low polyreactivity
21,QVQLVESGGGLVQAGGSLRLSCAASGSIIGDNTMGWYRQAPGKERELVATIRKNGASTTYADSVKGRFTISRDNAKNTVYLQMNSLKPEDTAVYYCARDHHTKYNYWGQGTQVTVSS,low polyreactivity
